Entries after “also recorded” stand apart in the source; their conditions may differ.

In test [1] the test system is SW-480 (colorectal cancer) cells. The test can be described thus: SW-480 colorectal cancer xenograft in nu/nu mice. In kind it is in vivo, mouse. As to conditions: average per group. As to the method:
Mice (nu/nu) were implanted subcutaneously with 5×10^6 SW-480 (colorectal cancer) cells. After 12 days, when tumors reached approximately 100-200 mg, the mice were separated into 5 groups and treated with the following agents (or left untreated): • 1—Untreated • 2—Vehicle (PBS) • 3—Cisplatin (4 mg/kg/, IV, q2d×5 times) • 4—A2-SV (negative control antibody @ 10 mg/kg, IP, q2d×14 times) • 5—DX-2220 (anti-Tie-1 antibody @ 10 mg/kg, IP, q2d×14 times)
Throughout the study, the length (L) and width (W) of any tumors that developed were measured in millimeters using calibrated vernier calipers, where L is the longer of the two dimensions. When applicable, tumor weight (M) in milligrams was calculated by using the formula associated with a prolate ellipsoid: M=(L×W^2)/2. […] A2-SV is an isotype matched (IgG1) negative control antibody that binds strepavidin.

Test [2] has as its target T1, Tie1-EpoR chimeric receptor (UniProt P14753+P35590).
T1 construct: the PCR amplified extracellular part of human Tie1 (bp 37-2316 of X60975); expressed in transfected cells
T1 sequence (P35590+P14753 with tags, fused parts or gaps): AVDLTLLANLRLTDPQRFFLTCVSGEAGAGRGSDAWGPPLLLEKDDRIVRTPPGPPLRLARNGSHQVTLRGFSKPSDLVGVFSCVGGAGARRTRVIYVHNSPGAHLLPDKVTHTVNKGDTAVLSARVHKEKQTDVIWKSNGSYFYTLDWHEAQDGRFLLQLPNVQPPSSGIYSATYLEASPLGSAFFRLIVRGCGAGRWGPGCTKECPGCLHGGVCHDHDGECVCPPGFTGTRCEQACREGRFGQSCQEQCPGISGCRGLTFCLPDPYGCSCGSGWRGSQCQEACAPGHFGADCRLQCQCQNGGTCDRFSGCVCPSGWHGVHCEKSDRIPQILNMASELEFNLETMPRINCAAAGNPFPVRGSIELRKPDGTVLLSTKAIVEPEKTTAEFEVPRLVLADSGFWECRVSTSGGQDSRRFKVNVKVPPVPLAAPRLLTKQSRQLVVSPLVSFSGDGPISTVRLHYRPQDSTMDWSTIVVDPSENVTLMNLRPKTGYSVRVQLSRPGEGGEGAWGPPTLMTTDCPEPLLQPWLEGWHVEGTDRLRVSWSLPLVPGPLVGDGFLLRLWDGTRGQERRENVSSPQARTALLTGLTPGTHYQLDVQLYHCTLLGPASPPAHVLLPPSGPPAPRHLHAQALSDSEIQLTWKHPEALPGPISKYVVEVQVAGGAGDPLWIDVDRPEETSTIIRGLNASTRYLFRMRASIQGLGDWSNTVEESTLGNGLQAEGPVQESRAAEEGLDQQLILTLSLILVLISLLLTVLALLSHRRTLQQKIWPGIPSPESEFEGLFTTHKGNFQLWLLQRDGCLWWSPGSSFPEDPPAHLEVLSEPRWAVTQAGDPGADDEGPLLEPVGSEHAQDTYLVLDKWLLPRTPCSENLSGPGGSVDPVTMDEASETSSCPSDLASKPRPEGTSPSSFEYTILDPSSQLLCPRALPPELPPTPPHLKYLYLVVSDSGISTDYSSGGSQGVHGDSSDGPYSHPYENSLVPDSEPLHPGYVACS
The test can be described thus: Ba/F3 bioassay (Tie1/EpoR chimeric BaF3 cell assay), MTT viability. In kind it is cell-based, human. Particulars: 100 ng/ml E3 IgG together with 100 (1:1) or 500 (1:5) ng/ml of the other antibody. An excerpt:
To generate Tie1-EpoR expressing Ba/F3 cells for the bioassay, Ba/F3 pre-B cells were stably transfected with a nucleic acid that expresses chimeric receptor containing the extracellular domain of human Tie1 fused with the transmembrane and cytoplasmic domains of the mouse erythropoietin receptor. The nucleic acid used was a Tie1-EpoR chimeric cDNA in a pEF-BOS expression vector. The nucleic acid encoding the chimeric receptor was constructed by cloning the PCR amplified extracellular part of human Tie1 (bp 37-2316 of X60975) as EcoRI-BglII fragment into mEpoR-pcDNA vector. The cDNA encoding for the chimeric receptor consisting of the extracellular part of Tie1 fused with the transmembrane and intracellular domains of EpoR was subcloned into the pEF-BOS expression vector. Vector was linearized and co-transfected into Ba/F3 cells with pcDNA3.1(+) Zeo vector (Invitrogen). Stable cell pools were generated by selection with 250 μg/ml Zeocin. The expression of Tie1/EpoR fusion protein in several clones was analyzed by Western blotting with an antibody against EpoR.
To perform the assays, Ba/F3 cells expressing the Tie 1-EpoR chimera were split in 96-well microtiter plates at 50 000 cells/well in the presence of the indicated concentrations of anti-Tie1 antibodies. As controls, Zeocin resistant pools not expressing the Tie1-EpoR were used. After 48 h, the viability of the cells was determined by adding MTT (3-(4,5-dimethylthiazol-2-yl)-2,5-diphenyl tetrazolium bromide (Sigma), 0.5 mg/ml), followed by further 2 h of culture, addition of an equal volume of cell lysis solution (10% SDS, 10 mM HCl) and incubation overnight at 37° C. Absorbance was measured at 540 nm.
Although no ligand for Tie1 has been identified, we used the following efficient screening method for Tie1-binding proteins. Interleukin-3 dependent pre-B-lymphocyte (Ba/F3) cells were transfected with a construct that expresses a Tie1-EpoR fusion protein. Since Ba/F3 cells are IL-3 dependent, they die unless IL-3 is provided. However, Tie-EpoR receptor expressing Ba/F3 cells can survive and proliferate if the medium contains a Tie1-binding protein, either a natural ligand or an artificial mimetic. Cell survival can be quantitated, e.g., by colorimetric MTT-assay, which measures mitochondrial activity.

The target of a further test is Tie1 (Homo sapiens, UniProt P35590). The test can be described thus: Immunohistochemistry of matched human tumor and normal tissue sections. Also noted: from tissue; host or cells: fresh frozen normal and tumor tissue (e.g. lung, kidney, skin, breast). As to conditions: 10 μg/ml, fresh frozen tissue. Here is the method:
The Tie-1 antibodies were biotinylated using the EZ-link Sulfo-NHS-SS-Biotin (Pierce, Cat. 21331). For Tie-1/Fc and Tie-1-His, the reaction was performed for 2 hours on ice in 50 mM sodium carbonate buffer, pH 9.6, in the presence of a 5-fold molar excess of biotinylating agent. For the antibodies, the reaction was performed for 2 hours on ice in PBS, in the presence of a 15-fold molar excess of EZ-link Sulfo-NHS-SS-Biotin. The reaction was stopped by the addition of Tris-HCl, pH 7.5 (50 mM final concentration) followed by a 1-hour incubation on ice. Samples were then dialyzed against PBS.
Various normal and tumor tissue sections were stained with biotinylated antibodies. A mouse monoclonal anti-Tie1 antibody (7e8) (Alitalo laboratory, University of Helsinki) was used as a positive control. Sections without primary antibody served as negative control. All samples were fresh frozen tissues and staining was performed with the TSA-kit (Perkin-Elmer Life Sciences). After acetone fixation (10-20 min, −20° C.) the slides were treated with 0.73% H2O2 for 10 min to reduce endogenous peroxidase activity followed by blocking for 30 min with TNB buffer. Sections ([…] thick) were incubated with primary antibodies (10 μg/ml) overnight at 4° C. Sections with the mouse monoclonal anti-tie1 antibody (7e8) were treated with biotinylated anti-mouse antibodies (VectaStain) before the addition of streptavidin-HRP. Signal was amplified by using a TSA kit and the visualized by AEC (235 ml NaAc, 15 ml AEC (stock solution: 1600 mg 3-amino-9-ethyl-carbazole and 480 ml N-dimethylformamide), 250 μl H2O2).

Test [3] deals with bFGF-induced angiogenesis. Nature of the test: […] plug assay, bFGF-induced angiogenesis in NMRI nu/nu mice. In kind it is in vivo, mouse. Particulars: first assay, day 7; bFGF 80 ng/ml; antibody 10 μg/ml in plug; E3 = germlined variant, IgG4. As to the method: The germlined variant of the E3 IgG antibody was evaluated in an in vivo assay for angiogenesis induced by bFGF in […]™ plugs. Growth factor reduced […]™ (BD Biosciences, catalog # 354230) was supplemented with 80 ng/ml of bFGF (R&D Systems, catalog #234-FSE). The A2-SV or an IgG4 E3 antibody (10 μg/ml) or PBS was injected subcutaneously into the abdominal area of NMRI nu/nu mice (150 μl of Matrigel/plug).
In the first assay, two mice were injected with […]™ supplemented with bFGF and soluble VEGFR-1 (10 μg/ml) as a positive control for an angiogenic inhibitor. At day 7 post-implantation mice were anesthetized and perfused through heart with 4% paraformaldehyde (PFA) in phosphate buffered saline (PBS). […]™ plugs and a piece of liver were removed and embedded in paraffin. Sections were cut and stained with hematoxylin and eosin (H&E).
In a second assay, mice were treated as described above, and then anesthetized eight days post-implantation and injected with fluorescein-conjugated tomato (lycopersicon esculentum) lectin (100 μg in 200 μl of PBS; Vector, catalog #FL-1171) into the tail vein. After five min circulation the animals were perfused through the heart with 10 ml of PBS followed by 10 ml of 4% PFA in PBS. […]™ plugs and pieces of kidney and liver were removed and frozen in OCT (Tissue-Tek). Nuclei were visualized on sections by using […]® mounting medium containing DAPI (Vector) and analyzed under fluorescence microscopy.

Tie1, sequence (P35590 22-1138): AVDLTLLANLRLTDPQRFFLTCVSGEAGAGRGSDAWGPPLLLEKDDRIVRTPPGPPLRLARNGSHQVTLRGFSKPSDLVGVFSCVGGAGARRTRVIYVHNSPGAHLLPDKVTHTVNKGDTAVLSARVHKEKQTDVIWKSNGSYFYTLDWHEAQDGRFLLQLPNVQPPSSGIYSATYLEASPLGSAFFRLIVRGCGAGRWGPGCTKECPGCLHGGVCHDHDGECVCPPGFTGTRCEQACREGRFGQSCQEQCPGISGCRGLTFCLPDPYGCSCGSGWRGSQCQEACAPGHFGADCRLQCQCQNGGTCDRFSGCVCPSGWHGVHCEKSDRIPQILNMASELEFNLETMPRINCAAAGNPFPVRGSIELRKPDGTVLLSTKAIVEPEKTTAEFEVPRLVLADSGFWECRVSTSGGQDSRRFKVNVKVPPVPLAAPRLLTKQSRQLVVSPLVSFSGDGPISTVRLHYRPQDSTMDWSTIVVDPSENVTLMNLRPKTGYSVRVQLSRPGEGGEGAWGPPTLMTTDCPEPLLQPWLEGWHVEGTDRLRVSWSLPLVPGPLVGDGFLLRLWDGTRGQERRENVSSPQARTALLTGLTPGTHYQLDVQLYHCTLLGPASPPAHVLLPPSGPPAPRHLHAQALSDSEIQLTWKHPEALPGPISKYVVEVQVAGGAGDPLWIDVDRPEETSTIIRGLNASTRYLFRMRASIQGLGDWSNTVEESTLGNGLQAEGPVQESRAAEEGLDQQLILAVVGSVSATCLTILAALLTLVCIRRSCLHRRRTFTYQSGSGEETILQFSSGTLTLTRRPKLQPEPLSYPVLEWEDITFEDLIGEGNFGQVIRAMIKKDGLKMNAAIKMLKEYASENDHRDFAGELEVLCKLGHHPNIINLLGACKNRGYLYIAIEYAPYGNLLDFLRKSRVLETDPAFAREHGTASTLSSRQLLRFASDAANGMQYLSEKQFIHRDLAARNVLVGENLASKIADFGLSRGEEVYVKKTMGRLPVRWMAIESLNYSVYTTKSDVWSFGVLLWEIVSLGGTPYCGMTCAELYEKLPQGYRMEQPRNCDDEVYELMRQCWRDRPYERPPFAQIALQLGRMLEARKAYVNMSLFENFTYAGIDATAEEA

For the molecule `N.N.[Cl][Pt][Cl]` [cisplatin, reference compound], the “Tumor Weight” value was determined as 48 mg in test [1] (5 days after cell injection (before treatment start at day 12)); 69 mg in test [1] (9 days after cell injection (before treatment start at day 12)); 137 mg in test [1] (12 days after cell injection (treatment start)); 185 mg in test [1] (15 days after cell injection); 207 mg in test [1] (19 days after cell injection); 235 mg in test [1] (22 days after cell injection). Further, the “Tumor Weight” value in test [1] (26 days after cell injection) was 310 mg; in test [1] (28 days after cell injection) it was 363 mg.

B1: D11: anti-Tie1 antibody; VH SEQ ID NO:84, VL SEQ ID NO:86 (antibody, V domains shown)
VH: EVQLLESGGGLVQPGGSLRLSCAASGFTFSGYAMWWVRQAPGKGLEWVSSISPSGGATAYADSVKGRFTISRDNSKNTLYLQMNSLRAEDTAVYYCARDAGSYYWGWFDPWGQGTLVTVSSASTKGPSVFP
VL: HSAQDIQMTQSPATLSLSPGERATLSCRASQSISSYLAWYQQKPGQPPRLLIYDASSRVTGIPARFSGSGFGTDFTLTISSLEPEDFAVYYCLQRSSWPRTFGQGTKLEIK
modifications: Synthetically generated peptide
On to B1, for which, in test [2], the “effect on the survival effect of E3 IgG in Tie1-EpoR Ba/F3 assay” value is listed as “completely blocked the viability; also recorded: blocked completely the survival effect of E3 IgG; also recorded: counteract the agonistic activity of E3”. Also, in the test with Tie1, the “staining of breast carcinoma” value is listed as “stained also other structures in addition to vessels”, the staining of kidney entry is listed as “stained kidney tubules in addition to the vessels”, the “staining of lung carcinoma” value is listed as “stained structures other than vessels” and the “staining of melanoma tissue” value was “also stained other surrounding structures”. Also, in the test with Tie1, the “staining of normal lung (large veins)” value is given as “faint staining”; the “staining of normal skin” value is on record as “stained blood vessels very faintly”; the “staining of veins and capillaries of mammary tissue (breast)” value is “stained those structures rather faintly”.

B2: soluble VEGFR1: soluble VEGFR-1 (10 μg/ml), positive control for an angiogenic inhibitor (protein, UniProt P17948 27-758, looked up)
extracellular domain: SKLKDPELSLKGTQHIMQAGQTLHLQCRGEAAHKWSLPEMVSKESERLSITKSACGRNGKQFCSTLTLNTAQANHTGFYSCKYLAVPTSKKKETESAIYIFISDTGRPFVEMYSEIPEIIHMTEGRELVIPCRVTSPNITVTLKKFPLDTLIPDGKRIIWDSRKGFIISNATYKEIGLLTCEATVNGHLYKTNYLTHRQTNTIIDVQISTPRPVKLLRGHTLVLNCTATTPLNTRVQMTWSYPDEKNKRASVRRRIDQSNSHANIFYSVLTIDKMQNKDKGLYTCRVRSGPSFKSVNTSVHIYDKAFITVKHRKQQVLETVAGKRSYRLSMKVKAFPSPEVVWLKDGLPATEKSARYLTRGYSLIIKDVTEEDAGNYTILLSIKQSNVFKNLTATLIVNVKPQIYEKAVSSFPDPALYPLGSRQILTCTAYGIPQPTIKWFWHPCNHNHSEARCDFCSNNEESFILDADSNMGNRIESITQRMAIIEGKNKMASTLVVADSRISGIYICIASNKVGTVGRNISFYITDVPNGFHVNLEKMPTEGEDLKLSCTVNKFLYRDVTWILLRTVNNRTMHYSISKQKMAITKEHSITLNLTIMNVSLQDSGTYACRARNVYTGEEILQKKEITIRDQEAPYLLRNLSDHTVAISSSTTLDCHANGVPEPQITWFKNNHKIQQEPGIILGPGSSTLFIERVTEEDEGVYHCKATNQKGSVESSAYLTVQGTSDKSNLE
modifications: extracellular domain
Regarding B2, the “vessel-like structures in MATRIGEL plugs (H&E staining)” value in test [3] is on record as “neither modification of the matrix nor organization of the cells”.

These data come from patent US7871610B2, “Antibodies to Tie1 ectodomain” (Dyax Corp., priority 2003, dated 2011).
